The source of these data is patent publication US20250163166A1.

Assay [1] addresses human FCγRIIIa receptor (human) (UniProt P08637). Put plainly: BLI (Octet 96), antibody loaded on sensor, FCγRIIIa 200 nM and 2-fold dilutions in solution.
Assay [2] has the same target. Kind of assay: BLI; Ratio of the hIgG (hIgG1) control against itself. Background: BLI is a label-free optical method that tracks binding on a fibre tip over time.

Sequence of human FCγRIIIa receptor (human) (P08637 17-208 limits assumed): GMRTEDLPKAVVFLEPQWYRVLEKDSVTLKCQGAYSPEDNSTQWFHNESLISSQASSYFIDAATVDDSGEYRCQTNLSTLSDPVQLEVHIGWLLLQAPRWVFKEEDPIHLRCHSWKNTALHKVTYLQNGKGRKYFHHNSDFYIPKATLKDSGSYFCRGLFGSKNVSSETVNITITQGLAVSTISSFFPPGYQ

On to control sample hIgG1 (antibody), for which the dissociation constant (Kd) in assay [1] is 88.6 nM. In assay [2], the Ratio came to 1.

As a reminder, the Kd is the equilibrium constant for the complex coming apart. Read a low Kd as higher affinity.
